Laboratory results published in patent US20240417475A1.

Experiments:
[1] = biological target: human CD16A-mFc (158F) (sAg_107) (human) (UniProt P08637); test: ELISA, plate coated with human CD16A-mFc (158F) (sAg_107), one-site fit, mean of 3
[2] = biological target: human CD16A-mFc (158V) (sAg_149) (human) (UniProt P08637); test: ELISA, plate coated with human CD16A-mFc (158V), anti-mouse HRP detection, A450
[3] = biological target: human CD16A-mFc (158F) (sAg_107) (human) (UniProt P08637); test: ELISA, plate coated with human CD16A-mFc (158F), anti-mouse HRP detection, A450
[4] = biological target: CD16A endogenously expressed on primary human NK cells (human) (UniProt P08637); test: flow cytometry on primary human NK cells, biotinylated antibody, 37 C, without IgG, mean of 4
Chain of CD16A endogenously expressed on primary human NK cells (human) (P08637 17-254 limits assumed): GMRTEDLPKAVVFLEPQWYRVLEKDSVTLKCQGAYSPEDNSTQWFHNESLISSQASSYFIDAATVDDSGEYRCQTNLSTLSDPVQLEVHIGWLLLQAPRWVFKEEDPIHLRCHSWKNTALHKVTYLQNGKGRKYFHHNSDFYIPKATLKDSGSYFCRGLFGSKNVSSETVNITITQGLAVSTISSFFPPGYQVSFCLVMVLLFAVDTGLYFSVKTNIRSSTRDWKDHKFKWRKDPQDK

[5] = biological target: CD16A endogenously expressed on primary human NK cells (human) (UniProt P08637); test: flow cytometry on primary human NK cells, biotinylated antibody, 37 C, with 10 mg/mL polyclonal human IgG as competitor, mean of 4
[6] = biological target: CD16A endogenously expressed on primary human NK cells (human) (UniProt P08637); test: flow cytometry on primary human NK cells at 37 °C, biotinylated antibody, streptavidin-FITC, without polyclonal human IgG

Chain of human CD16A-mFc (158F) (sAg_107) (human) (P08637 17-208 limits assumed): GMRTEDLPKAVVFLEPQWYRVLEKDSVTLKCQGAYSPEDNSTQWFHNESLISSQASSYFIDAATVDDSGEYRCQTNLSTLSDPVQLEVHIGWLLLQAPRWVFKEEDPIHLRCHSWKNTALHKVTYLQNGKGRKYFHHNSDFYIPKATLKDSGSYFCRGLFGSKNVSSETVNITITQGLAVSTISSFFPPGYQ
Chain of human CD16A-mFc (158V) (sAg_149) (human) (P08637 17-208 F176V limits assumed): as the sequence (P08637 17-208 limits assumed) above, with F160V counted along it

**Q.** With anti-human CD16 antibody clone 3G8 as the substance, how does the Kd [1] read?
**A.** 20 pM

**Q.** What about the EC50 (read off the curve) [2] of the same substance?
**A.** 200 pM

**Q.** What about the EC50 (read off the curve) [3] of the same substance?
**A.** 30 pM

**Q.** What about the Kd [4] of the same substance?
**A.** 300 pM

**Q.** What about the Kd [5] of the same substance?
**A.** 54600 pM

**Q.** What about the EC50 (read off the curve) [6] of the same substance?
**A.** 300 pM
